Source: patent publication US20090307790

Columns and labels:
[1] = molecular target: Rac1, produced as GST-fusion protein in E. coli BL21 [GST: P08515]
[2] = molecular target: RhoA, produced as GST-fusion protein in E. coli BL21 [GST: P08515]
[3] = molecular target: cdc42, produced as GST-fusion protein in E. coli BL21 [GST: P08515]

B1: catalytic domain of wild type Tagap1, produced as GST-fusion protein in E. coli BL21 (protein)
chain: QPLSIICGENDTLPRPIQDILTILCLKGPSTEGIFRKAASEKARKELKEGLNCGVSVNLKQLPVHLLAVVFKDFLRGIPLKLLSCDLFEDWMGALEKPTEEDRIEALKQVAGGLPRPNLLLLRHLLYVLHLISKNAEVNKMDSSNLAICIGPNMLTLKNDQSLSFQAQKDLNNKVKILVEFLIDNCFEIF
Question: For B1, which “GTPase activity of Rac1 (in vitro GAP assay)” value [1] is on record?
Answer: hardly (Rac1) stimulated

Question: And the “GTPase activity of RhoA (GAP-activity assay, FIG. 2e)” value [2]?
Answer: Tagap1 enhances the GTPase activity of RhoA

Question: And the “GTPase activity of RhoA (in vitro GAP assay)” value [2]?
Answer: the GTPase activity of RhoA was strongly enhanced by the GAP domain of Tagap1

Question: And the “GTPase activity of Cdc42 (in vitro GAP assay)” value [3]?
Answer: only mildly (Cdc42) ... stimulated
